Measured values published in patent US20240026343A1, “METHOD FOR SCREENING DIMERIZED CYCLIC PEPTIDE” (AJINOMOTO CO., INC., priority 2021, published 2024).
Positions count from the first letter of the chain named. Positions of bridges follow the written chain, without caps; N, C: chain ends. No end group written: not given here.

B1: aMD4dY-Jun-cys-N11-SecM-GS3 (designed binder)
chain: MAETCRQFNRRTHEVWNLDCGAAPAAPAPAAGGRIARLEEKVKTLKAQNSELASTANMLREQVAQLKQKVMNGCGGKDHLIHNHHKHEHAHAEHLFSTPVWISQAQGIRAGGSGSGS
modifications: cyclic peptide part closed by a disulfide bond between its two Cys
notes: In the reporter assays it was a free cell-free translation product
B2: EMP-Jun-cys-N11-SecM-GS3 (designed binder)
chain: MAETGGLYACHMGPMTWVCQPLRGAAPAAPAPAAGGRIARLEEKVKTLKAQNSELASTANMLREQVAQLKQKVMNGCGGKDHLIHNHHKHEHAHAEHLFSTPVWISQAQGIRAGGSGSGS
modifications: cyclic peptide part closed by a disulfide bond between its two Cys
notes: In the PathHunter assay it was a free cell-free translation product
B3: aMD4dY-PA8-cys-Jun: aMD4dY-leucine zipper fusion polypeptide, SEQ ID NO: 45, cell-free expressed, forms disulfide dimer (protein)
chain: MAETCRQFNRRTHEVWNLDCGAAPAAPAPAAGCGGRIARLEEKVKTLKAQNSELASTANMLREQVAQLKQKVMN
modifications: disulfide dimer; aMD4dY-PA8-cys-Jun; DISULFID 5..20 Disulfide bridge between Cys-5 and Cys-20
B4: aMD4dY-PA8-Jun: aMD4dY-leucine zipper fusion without cysteine residue, SEQ ID NO: 46 (protein)
chain: MAETCRQFNRRTHEVWNLDCGAAPAAPAPAAGGGRIARLEEKVKTLKAQNSELASTANMLREQVAQLKQKVMN
modifications: aMD4dY-PA8-Jun; DISULFID 5..20 Disulfide bridge between Cys-5 and Cys-20
B5: aMD4dY-PA8-cys-JunΔhep: aMD4dY fusion with c-Jun zipper having heparin binding ability removed, SEQ ID NO: 47 (protein)
chain: B3 chain with R36Q, R39Q, K45Q, K48Q
modifications: aMD4dY-PA8-cys-Junhep; DISULFID 5..20 Disulfide bridge between Cys-5 and Cys-20
B6: aMD4dY-PA8-cys-CEBPα: aMD4dY-CEBPα leucine zipper fusion, SEQ ID NO: 49 (protein)
chain: MAETCRQFNRRTHEVWNLDCGAAPAAPAPAAGCGGRNVETQQKVLELTSDNDRLRKRVEQLSRELDTLRGIFRQ
modifications: aMD4dY-PA8-cys-CEBP; DISULFID 5..20 Disulfide bridge between Cys-5 and Cys-20
B7: cys-Jun-PA8-aMD4dY: aMD4dY-leucine zipper fusion, SEQ ID NO: 50 (protein)
chain: MGGCGGRIARLEEKVKTLKAQNSELASTANMLREQVAQLKQKVMNAAPAAPAPACRQFNRRTHEVWNLDC
modifications: disulfide 55-70
B8: Jun-cys-PA8-aMD4dY: aMD4dY-leucine zipper fusion, SEQ ID NO: 51 (protein)
chain: MGRIARLEEKVKTLKAQNSELASTANMLREQVAQLKQKVMNGGCGGAAPAAPAPACRQFNRRTHEVWNLDC
modifications: Jun-cys-PA8-aMD4dY; DISULFID 56..71 Disulfide bridge between Cys-56 and Cys-71
B9: EMP-PA8-cys-Jun: EMP-leucine zipper fusion, SEQ ID NO: 67 (protein)
chain: MGGLYACHMGPMTWVCQPLRGAAPAAPAPAAGCGGRIARLEEKVKTLKAQNSELASTANMLREQVAQLKQKVMN
modifications: EMP-PA8-cys-Jun; DISULFID 7..16 Disulfide bridge between Cys-7 and Cys-16
B10: TPO-Jun-cys-N11-SecM-GS3: thrombopoietin receptor binding cyclic peptide-leucine zipper fusion, SEQ ID NO: 72 (protein)
chain: MAETCADGPTLREWISFCGAAPAAPAPAAGGRIARLEEKVKTLKAQNSELASTANMLREQVAQLKQKVMNGCGGKDHLIHNHHKHEHAHAEHLFSTPVWISQAQGIRAGGSGSGS
modifications: cyclic peptide disulfide; TPO-Jun-cys-N11-SecM-GS3; DISULFID 5..18 Disulfide bridge between Cys-5 and Cys-18
B11: EMP′-Jun-cys-N11-SecM-GS3: erythropoietin receptor binding cyclic peptide (EMP′)-leucine zipper fusion, SEQ ID NO: 73 (protein)
chain: MAETCHMGPMTWVCGAAPAAPAPAAGGRIARLEEKVKTLKAQNSELASTANMLREQVAQLKQKVMNGCGGKDHLIHNHHKHEHAHAEHLFSTPVWISQAQGIRAGGSGSGS
modifications: cyclic peptide disulfide; EMP'-Jun-cys-N11-SecM-GS3; DISULFID 5..14 Disulfide bridge between Cys-5 and Cys-14

How the values were obtained:
Met = Met (Homo sapiens, UniProt P08581); details: reported; cited from earlier work
Sequence of Met (P08581 25-1390): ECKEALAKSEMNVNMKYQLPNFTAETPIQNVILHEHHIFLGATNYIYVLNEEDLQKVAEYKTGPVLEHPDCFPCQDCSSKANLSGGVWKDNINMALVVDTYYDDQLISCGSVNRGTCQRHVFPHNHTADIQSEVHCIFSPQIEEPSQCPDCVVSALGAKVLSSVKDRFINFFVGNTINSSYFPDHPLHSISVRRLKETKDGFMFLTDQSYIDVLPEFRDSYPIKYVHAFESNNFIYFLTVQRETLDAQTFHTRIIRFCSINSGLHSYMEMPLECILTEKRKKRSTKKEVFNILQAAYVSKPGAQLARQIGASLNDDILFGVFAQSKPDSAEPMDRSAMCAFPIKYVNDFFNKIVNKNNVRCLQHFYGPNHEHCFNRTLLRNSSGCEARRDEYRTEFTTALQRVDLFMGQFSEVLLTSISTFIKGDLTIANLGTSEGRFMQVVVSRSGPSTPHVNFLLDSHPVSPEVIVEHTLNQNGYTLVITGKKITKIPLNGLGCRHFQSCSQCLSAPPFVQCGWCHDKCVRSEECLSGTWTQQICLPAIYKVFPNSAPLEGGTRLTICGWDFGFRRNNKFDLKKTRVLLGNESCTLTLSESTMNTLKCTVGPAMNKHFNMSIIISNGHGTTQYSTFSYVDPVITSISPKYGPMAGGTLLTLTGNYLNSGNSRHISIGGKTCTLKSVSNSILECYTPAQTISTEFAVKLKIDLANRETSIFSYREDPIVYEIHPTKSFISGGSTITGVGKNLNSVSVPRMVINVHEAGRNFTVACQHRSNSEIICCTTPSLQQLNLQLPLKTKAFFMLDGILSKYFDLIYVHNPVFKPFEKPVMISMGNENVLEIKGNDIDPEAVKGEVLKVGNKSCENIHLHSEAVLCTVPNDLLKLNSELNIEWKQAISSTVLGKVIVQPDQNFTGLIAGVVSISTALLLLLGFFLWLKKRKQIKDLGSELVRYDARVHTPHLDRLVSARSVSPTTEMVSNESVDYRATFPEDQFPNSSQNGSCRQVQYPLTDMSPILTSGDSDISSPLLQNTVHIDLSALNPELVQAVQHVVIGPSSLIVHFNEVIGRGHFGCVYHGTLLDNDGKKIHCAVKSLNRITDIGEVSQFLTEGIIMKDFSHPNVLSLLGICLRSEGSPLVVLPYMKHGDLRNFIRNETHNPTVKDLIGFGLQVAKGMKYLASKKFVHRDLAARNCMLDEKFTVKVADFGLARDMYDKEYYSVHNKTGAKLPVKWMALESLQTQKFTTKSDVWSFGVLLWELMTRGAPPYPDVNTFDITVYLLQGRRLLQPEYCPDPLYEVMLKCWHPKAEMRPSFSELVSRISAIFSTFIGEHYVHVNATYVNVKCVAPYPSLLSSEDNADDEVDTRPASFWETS

[1] = molecular target: T1, Recombinant Human HGFR/c-MET Fc Chimera Protein (R&D systems, 8614-MT-100) (human, UniProt P08581 25-932); assay: ribosome display selection on c-MET Fc chimera on magnetic beads, from a 1:50:50 DNA mix; DNA length analysis of the recovered cDNA
T1 construct: Bought reagent; also called c-Met immobilized on magnetic beads; Fc part of the bought chimera not given
T1 sequence (P08581 25-932, change not shown): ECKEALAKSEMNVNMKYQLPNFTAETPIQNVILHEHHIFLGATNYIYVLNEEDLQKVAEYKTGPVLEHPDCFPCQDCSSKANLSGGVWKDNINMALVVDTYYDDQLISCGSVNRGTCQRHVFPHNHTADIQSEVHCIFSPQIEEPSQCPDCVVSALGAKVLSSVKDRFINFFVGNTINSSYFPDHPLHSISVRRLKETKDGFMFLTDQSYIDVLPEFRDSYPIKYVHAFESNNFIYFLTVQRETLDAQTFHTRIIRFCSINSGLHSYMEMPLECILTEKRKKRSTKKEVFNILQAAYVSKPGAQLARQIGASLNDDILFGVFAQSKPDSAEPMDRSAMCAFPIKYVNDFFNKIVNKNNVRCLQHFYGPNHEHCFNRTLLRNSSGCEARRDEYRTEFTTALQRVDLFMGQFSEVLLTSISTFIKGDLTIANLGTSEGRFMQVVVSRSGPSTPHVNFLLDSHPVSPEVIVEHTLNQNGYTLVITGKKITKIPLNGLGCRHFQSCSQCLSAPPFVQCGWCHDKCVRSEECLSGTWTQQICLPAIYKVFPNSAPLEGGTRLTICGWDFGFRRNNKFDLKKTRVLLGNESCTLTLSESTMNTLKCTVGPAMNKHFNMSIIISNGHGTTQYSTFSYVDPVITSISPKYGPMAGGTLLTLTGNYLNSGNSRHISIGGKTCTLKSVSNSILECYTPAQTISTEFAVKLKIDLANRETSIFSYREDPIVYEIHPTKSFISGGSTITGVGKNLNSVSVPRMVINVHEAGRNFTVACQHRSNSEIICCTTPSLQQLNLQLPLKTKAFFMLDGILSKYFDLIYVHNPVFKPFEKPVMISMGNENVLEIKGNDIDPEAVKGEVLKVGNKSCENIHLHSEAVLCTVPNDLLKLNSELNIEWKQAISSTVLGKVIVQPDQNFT

[2] = molecular target: T2, Recombinant Human Erythropoietin R Fc Chimera Protein, CF (R&D systems, 963-ER-50) (human, UniProt P19235 25-250); assay: ribosome display selection on Erythropoietin R Fc chimera on magnetic beads, from a 1:50:50 DNA mix; DNA length analysis of the recovered cDNA
T2 construct: Bought reagent; also called EPO receptor immobilized on magnetic beads; Fc part of the bought chimera not given
T2 sequence (looked up): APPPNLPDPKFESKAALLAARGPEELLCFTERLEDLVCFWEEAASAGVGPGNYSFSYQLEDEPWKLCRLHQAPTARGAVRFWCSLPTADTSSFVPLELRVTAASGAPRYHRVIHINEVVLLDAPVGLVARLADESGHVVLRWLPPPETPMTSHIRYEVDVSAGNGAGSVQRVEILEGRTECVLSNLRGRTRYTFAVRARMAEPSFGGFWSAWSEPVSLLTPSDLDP

HGF-Erk-SRE pathway [3] = assay: SRE luciferase reporter assay of aMD4dY-leucine zipper fusion dimers (Example 2); format: cell-based; details: HEK293E cells with SRE reporter; cell-free expression reaction solution at 25- to 625-fold dilution; overnight stimulation; HGF 0 to 100 ng/mL as comparator; FIGS. 8-13
Protocol: (§1) The dimer of each aMD4dY-leucine zipper fusion was evaluated by luciferase assay. To 25 μL of Opti-MEM medium (Thermo Fisher Scientific), 0.6 μL of Attractene Transfection Reagent (QIAGEN) was added and incubated at room temperature for 5 minutes. To the above mixed solution, a mixed solution of 25 μL of Opti-MEM and 1 μL of SRE reporter vector (QIAGEN) was added and incubated at room temperature for 20 minutes. This mixed solution was added to a 96-well plate, HEK293E cells were seeded thereon at 40,000 cells/well, and incubated overnight at 37° C. in a 5% CO2 incubator. After transfection, all the culture supernatant was removed, and 100 μL of Opti-MEM medium (evaluation basal medium), containing 0.5% FBS (Thermo Fisher Scientific), 1% non-essential amino acid solution (Thermo Fisher Scientific), and penicillin-streptomycin (Nacalai Tesque), was added thereto, which was cultured at 37° C. for 4 hours to starve the cells.
(§2) To the evaluation basal medium, 0 to 100 ng/mL HGF was added, or the cell-free expression reaction solution was added at a 25- to 625-fold dilution with respect to the medium, and 100 μL of the evaluation basal medium was added to the cells. The cells were stimulated by culturing overnight at 37° C. in a 5% CO2 incubator.
(§3) Dual-Luciferase Reporter Assay System (Promega) was used for signal intensity detection. The medium supernatant in an amount of 100 μL was removed, 50 μL of Glo reagent was added, and cells were lysed at room temperature for 10 minutes. Activation of the HGF-Erk-SRE pathway was quantified by detecting Firefly luciferase luminescence from cell lysates with a plate reader. Subsequently, 50 μL of Glo & Stop reagent solution was added, and after 10 minutes, luminescence of Renilla luciferase, an internal standard, was detected to quantify the cell count. The signal activity of each sample was quantified as SRE activity=(luminescence intensity of Firefly luciferase)/(luminescence intensity of Renilla luciferase). A signal activity value relative to a sample without an addition of evaluation compound was obtained and defined as relative reporter activity.

EpoR = EpoR (Homo sapiens, UniProt P19235); assay: PathHunter eXpress EpoR-JAK2 Functional Assay of EMP-leucine zipper fusion dimer (Example 3); format: cell-based; details: diluted cell-free expression reaction solution; 3 hours stimulation; No DNA negative control; FIG. 14
Sequence of EpoR (P19235 25-508): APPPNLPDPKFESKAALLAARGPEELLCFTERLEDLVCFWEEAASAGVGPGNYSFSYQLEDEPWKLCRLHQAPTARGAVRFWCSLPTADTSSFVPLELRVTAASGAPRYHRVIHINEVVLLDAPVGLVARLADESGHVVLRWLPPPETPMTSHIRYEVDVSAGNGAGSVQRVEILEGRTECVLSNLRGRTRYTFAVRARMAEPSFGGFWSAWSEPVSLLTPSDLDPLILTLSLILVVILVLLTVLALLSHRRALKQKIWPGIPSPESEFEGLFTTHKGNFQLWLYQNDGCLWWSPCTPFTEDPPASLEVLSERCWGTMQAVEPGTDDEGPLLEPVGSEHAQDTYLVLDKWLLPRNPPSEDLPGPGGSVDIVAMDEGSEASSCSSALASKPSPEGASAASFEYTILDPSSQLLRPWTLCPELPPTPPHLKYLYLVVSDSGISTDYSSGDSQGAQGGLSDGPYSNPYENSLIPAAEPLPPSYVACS
Sequence of EpoR (O60674 whole entry partner, the tested form may be a part): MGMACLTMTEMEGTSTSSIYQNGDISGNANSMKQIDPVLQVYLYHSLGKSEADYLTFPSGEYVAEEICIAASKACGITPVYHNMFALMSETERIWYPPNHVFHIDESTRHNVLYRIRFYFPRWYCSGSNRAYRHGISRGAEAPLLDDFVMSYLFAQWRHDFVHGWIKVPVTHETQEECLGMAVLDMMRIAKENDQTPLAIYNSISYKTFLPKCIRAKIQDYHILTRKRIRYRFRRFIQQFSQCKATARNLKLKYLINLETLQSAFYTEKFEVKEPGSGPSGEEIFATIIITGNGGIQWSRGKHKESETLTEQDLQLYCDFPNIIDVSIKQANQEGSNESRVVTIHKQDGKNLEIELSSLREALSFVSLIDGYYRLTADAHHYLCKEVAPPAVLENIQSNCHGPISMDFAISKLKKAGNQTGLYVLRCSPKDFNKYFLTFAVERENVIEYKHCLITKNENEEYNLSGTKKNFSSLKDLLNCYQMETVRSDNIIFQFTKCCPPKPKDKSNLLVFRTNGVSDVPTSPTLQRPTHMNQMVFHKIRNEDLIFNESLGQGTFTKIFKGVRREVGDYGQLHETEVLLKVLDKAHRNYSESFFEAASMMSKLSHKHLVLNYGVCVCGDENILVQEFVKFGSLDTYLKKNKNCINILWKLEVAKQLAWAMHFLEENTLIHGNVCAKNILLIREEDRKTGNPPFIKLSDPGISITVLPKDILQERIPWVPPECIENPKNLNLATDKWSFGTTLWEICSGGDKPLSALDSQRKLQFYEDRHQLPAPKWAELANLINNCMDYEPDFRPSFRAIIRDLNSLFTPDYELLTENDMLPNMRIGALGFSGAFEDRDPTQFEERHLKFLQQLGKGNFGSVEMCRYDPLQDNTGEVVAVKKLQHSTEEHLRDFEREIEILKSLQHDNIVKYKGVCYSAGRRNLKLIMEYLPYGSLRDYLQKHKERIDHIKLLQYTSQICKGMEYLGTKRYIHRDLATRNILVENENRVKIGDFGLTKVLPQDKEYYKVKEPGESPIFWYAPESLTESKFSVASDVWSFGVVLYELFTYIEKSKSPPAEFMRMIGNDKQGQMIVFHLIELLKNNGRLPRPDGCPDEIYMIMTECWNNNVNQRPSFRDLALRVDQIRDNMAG
Protocol: The ability of the EMP-leucine zipper fusion dimer to activate EpoR was assessed using PathHunter® eXpress EpoR-JAK2 Functional Assay Kit (DiscoveRx).
Cells for EPO activity evaluation contained in the PathHunter® eXpress EpoR-JAK2 Functional Assay Kit were seeded in a 96-well plate and cultured for 24 hours at 37° C. under 5% CO2. A cell-free expression reaction solution containing the EMP-leucine zipper fusion were diluted and added to the cells. […] To the cells stimulated at room temperature for 3 hours, the prepared Substrate Reagent was added and incubated for 60 minutes. Chemiluminescence intensity was quantified with a Nivo plate reader (Perkin Elmer).

HGF-Erk-SRE pathway [4] = assay: SRE luciferase reporter assay of cell-free translation products from ribosome display DNAs (Example 4); format: cell-based; details: HEK293E cells with SRE reporter; cell-free translation product at 25- to 625-fold dilution; HGF comparator; FIG. 16
Protocol: For cell-free translation, to 20 ng of each DNA, 2.5 μL of Solution I, 0.25 μL of Solution II, 0.5 μL of Solution III, and 1.75 μL of water were added, and the mixture was incubated at 37° C. for 6 hours to carry out the translation reaction.
as §1, with “Reporter assays were carried out as follows.” for “The dimer of each aMD4dY-leucine zipper fusion was evaluated by luciferase assay.”
as §2, with “or the above cell-free expression” for “or the cell-free expression”
as §3, with “The medium supernatant in an amount of 100 μL was removed, 50 μL of Glo reagent was added, and cells were lysed at room temperature for 10 minutes.” left out, “A signal activity value relative to a sample without an addition of evaluation compound was obtained and defined as relative reporter activity.” left out

Row | Molecule | relative reporter activity (SRE activity) (HGF-Erk-SRE pathway [3]) | further results
1 | CRQFNRRTHEVWNLDC (disulfide 1-16) [aMD4dY] | – | HGF-like activity (Met agonist) when dimerized (Met): exhibits an HGF-like activity
2 | B1 | – | binding result [1]: binds
3 | B2 | – | binding result [2]: binds
4 | B3 | showed activity comparable to HGF | –
5 | B4 | did not show activity | –
6 | B5 | activity was also exhibited | –
7 | B6 | found to have signal activation ability | –
8 | B7 | found to have signal activation ability | –
9 | B8 | found to have signal activation ability | –
10 | B9 | – | ability to activate EpoR (relative receptor activity, chemiluminescence) (EpoR): activated EpoR
11 | B10 | – | relative SRE reporter activity (relative receptor activity) (HGF-Erk-SRE pathway [4]): only aMD4dY-Jun-cys-N11-SecM-GS3 showed activity
12 | B11 | – | relative SRE reporter activity (relative receptor activity) (HGF-Erk-SRE pathway [4]): only aMD4dY-Jun-cys-N11-SecM-GS3 showed activity
